# Assay results reported in the domain aggregation screens of Martell et al. (2025).
# Test: soluble fraction after stress (log2 fold change); higher = more stays soluble; pooled small domains, quantitative proteomics
# Details: stress: 75 degC
# 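Further: 20 min heating vs room temperature control held 20 min.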
row,Sequence,soluble fraction (log2)
1,HMNIIATHTVPAIEQKIRLQEYAISIFPQINSRSALKKAIAKKLVLLDGERASTADWIQPGQKIELLEDK,-1.37
2,HMNILAPFWERFGLSAFAAGNYDRAEGYFRKLEQKDPNSMSVLRNLGLILMAKGDAEGAEAYLLREEKL,-0.755
3,HMNILKKDKRLWDENNLNKPLLFELLENYDKEIFELLLTDKDIKAKFFVQAGESYVFKYDDFRFAIEQN,-3.32
4,HMNIMAQDWISSPMGPISFKSNQHGLVKIGWGEVPRENTEQPNLEFTRKWLVDYFEGKASPLPYF,-0.623
5,HMNIQGIFGRNLKQKRLEKGMTQEQLAEKAGVSTDTVKRYESGKYDGIRLDMAWYMANALDTPLQALLPP,0.598
6,HMNISALKGKIGEVYLKIPAHNAGKGKVLISLKGTHHELYAITRSGEDISSGEFVKVIEIEDEILVVEK,-2.05
7,HMNITFAENIKQFRKAKSMSMEELGKRLGKAKSSISAWENGKRTPKINELKSISEALGVTISQLLGF,-1.71
8,HMNIYIEFGRRLAFIRQNSKLSQSQIAQKLNIAQSTYAGYEKGVRKIPLEIIVQLSKILNISPTILILG,-3.84
9,HMNKADFLRKLDRELSVLDQEERKEILSFYEERFYTGTNYENKTELDIINELENPEIIAKNVLEEYGV,-0.253
10,HMNKDEFLRRLEDALSGEVPASVIRENLNYYADYLSQELGKGRTMDEIIEEIGEPNIVARTIINSAEAA,0.184
11,HMNKDWQDEVALQRYTMITPLLSEDLDNAKRIAMREKIAQDNLTTARSLYRYEKAYRENGFQGLRPTD,-0.252
12,HMNKEIEDYVATYSSMKAKEAAAIFDTMTSDLDLVAKILEAMSADDRAKILEQMNEENAARLTKMMD,0.0551
13,HMNKEQIASNIAEARKRSGLNQSELARRLGIRPQSVQQWEKGTATPKLDRLTAIAQVLGVSLESLTG,-0.0463
14,HMNKFADLAGNIIYNENGVEVFNFGKYKGQPVAEVFKKDIGYYGWIQNADFPRYTKKVFTAIQLKSK,-1.28
15,HMNKIDVVEVDMSKPYEDMTVTELQNVILGKLASNGPVTDQMKKDVAENIYHDSLVNWAKSF,0.883
16,HMNKIENLSQTILNILRKDHSQAFNYKQIAAKLQLDDPSSRNQIVKKLKDLQGKGTIQEIERGKYILTP,0.394
17,HMNKITIDQAKEIALNHAKLTAEQVSFIRTESEFDDGIEKYNIEFYYNNQKYDYDINAVNGQIIQYDLEG,0.159
18,HMNKITIEEAKSIALKHSNLDESQVSFIRSEYDFDNGIEKYEIEFYYNNNKYEYEINAKTGDIISYDYDI,-1.02
19,HMNKKAAYKDMAGYFAEMKSKDAADILSRLKDEDIIGIFNEMPRDMVAEMLQKMDRDKATTLTRKML,0.444
20,HMNKKEQYQNIISNFLEKMSEEDRLIFNMHFFKSINISQIARSIDREGYYVKTKIENLLADLKSLMIGNNL,-2.95
21,HMNKKETRLNNFIHFLKIRNSITVKEMANHLNVSEMTVRRDIKELTADHTINFENGKIMFNPQSSL,-1.82
22,HMNKLIIDAAEDKIFFMIMNNDISYNISHENTKINFEKLIILINDFLSSKKLKINDITGLYV,0.123
23,HMNKNIKIPNISNLSREDAESVLKESGISVSTEIKEVESDTIEKGKVVKTEPSIGSTVKQGRTITIYISSG,0.161
24,HMNKRYKVQVTTDNLKIRKGAGTSYPVVGHITDKGTYTIVETSGKWGKLLSGAGWIYLSYTKK,-2.13
25,HMNKTEIISILEKIVLPTQIRNINIFGSEVIIDLNIDNPSLHAKKKLEKSIINSFDKNHKIIINFNVE,-0.238
26,HMNKTLTEQIYDELKSAIIELELKPGEFVTEEYLAEQLGVSRTPLKSAISKLIFEGLMAYEVGKGTYIS,-1.11
27,HMNKVQTFIIEKHIKEVFEHTNRTYYRSGQYYFQTRDEFSMALKRFLKDREPNKKNWIDSIINRA,-0.945
28,HMNKYQFESKIHIYRATKRMTQQELADLVGVSRQTIMQLERNRYNPSMMLAYGIAKVFDVTIEDLFDFSEV,-3.18

row,Sequence,soluble fraction (log2)
1,HMNKYYQQLLQADPTGFIDPFKDLGTYDSRLNTFKEPVSELLNPFSGRPYSKIWQKRIETMREIFISYIKS,-2.8
2,HMNLDVEQIKKEALNQLIEIGNENDGIVTIKDFKKIDDISSLDEDDIEDIRNLLIENNIEIFE,0.0781
3,HMNLEQTIVLGKRLFNNALDTLGKKQRSIKNKQINKLLELLNFKNMNELYQSIGVGDKNPLLMAQMML,-0.775
4,HMNLESNQYVIDISDSQVINKDEFETILNQNKTKDIVIKSNNNVTFTFEKGSMIGAEGKDNYDFSSQVNY,-0.0852
5,HMNLFNEIEKQYQALQDRSSASLVDLRHLLLDIEELVNSPDYQALAPDQRSTLQAARKELMRRIQKQEN,0.819
6,HMNLGDSLFHARRKQGLSQEAVAEQLGVSRQTVSKWEANETLPDIRQSKLMAKLYHTSLDELI,0.0881
7,HMNLLDYTTLYVTSDGKSVSFGIAGKEIPVSYIAQEAPGTVVIDDTIRIPRKYDMEYILKRFNES,-1.2
8,HMNLLGDNIRKLRLEKGLGLNEVARLANITGGYLSSIENNKRTNVGTEILESIAKAIGVSVSDFYL,-0.347
9,HMNLLGERIREIRMEMGLTAKELAQRASVTPGYISQIEHDQIKPSMNVMMRIAEVLNVPMAALLM,-2.38
10,HMNLLPAGTYKLKDLVTAEDEEIGAKKGDVVIAHEDTPPSDRVLGVDIFPVIHKNTSKKIYVSLEDI,0.322
11,HMNLMQIHVARPPNQLGVFSQEEVAAGLQSGRFLPTDQAWRDGMSAWTPLSQWAEFSSVVAAV,-0.217
12,HMNLNLDITTYKLEELENLLKLKPNYKQEQIFEAKTKMEKFILKSNLNESKREELYIFLDNIYNKLTNNLL,-2.94
13,HMNLPISDREKELLTLLSKGLLYKEIASKLDITIGTVKQHIHNIYHKLHVSNKTEALNLFNK,-1
14,HMNLRLKEVLDEKNMSLVTLSEKTGIEKGNLSAISNNKKNPTVETLSKIAKALQISLAELFESPP,0.416
15,HMNLSDIETWLRELSLEKYALAFSEAEIDFETLPELTEDDLKEVGLPVGPRRKVWGAIQLLRTTD,-1.48
16,HMNLSNVVIRKVQEMILSGELQEGDKLPPEREMTQRLGIGRPALREGLKSLEMLGLVERRHGLGNFIINKV,-1.05
17,HMNLSPADFSSVRNALGLSLSTVAKESGINRNYLSNFEKKKHFLEETAKVKLRDYYMSIDPDAFAAAL,-0.408
18,HMNLVGGKINSLMTTKNVTIQDLSERSGLTVSQIELLLSGDKVPSLAVLIKIARGLGVRVGTFL,-1.12
19,HMNLVRQHTDYAFRLLVALSQAPGKPISTRTLASAADVPYQFASKIMQKLHEEGLVESVMGPFGGFRLVQ,-3.15
20,HMNLWIDNTQVINDWTEGASERSGSIYLTAGVKPIKMQYFDSVLNAKAILRWQGPGINKSVVPSSALTPG,-1.14
21,HMNMEDIADKIGRLYDNLPDDLKLMIKYRDIDDMTYDEIARKANLPIGTVRSRLHRARDILLREI,-1.07
22,HMNMFGIQRRNHLLSLLQEKKSITVQEAAVIFEVAEETIRRDFRTMEGQGLIVRTHGGALLADD,-4.21
23,HMNMMIIHVNGEKYSFQEPITISELILKLELDSRKIAIEYNLEILPRSLFEITSIKNGDKIEIVHFI,-3.43
24,HMNMPYGTVKWFNDAKGFGFIAPEDGSADVFVHFSAINSKGFRSLQEGQRVSYEVTTGPKGAQAAGVTPVT,-0.234
25,HMNMYTVTGRLVDQDGVPQANALVTIDSSSQQTRTSPQGFYLIKVFGTEPSTIKFLVDGYDPQIVNFTP,-0.466
26,HMNNDIDRVFAELTVLSQKKGYLVFDDIEKGTEDLSVNEVDWLTNRLLTSGVEIFDDVPDTIK,0.347
27,HMNNDSQYLATLQRYYAEHRVLPSYARMLPLLGFASKAAVKKVLERLEVVGMLERTEDGDWAPSERFFER,-2.24
